The results in this text go back to patent US20040081647.

For this data set, the target named is recombinant human TNFα (RDI) (UniProt P01375).
recombinant human TNFα (RDI), sequence (P01375 77-233): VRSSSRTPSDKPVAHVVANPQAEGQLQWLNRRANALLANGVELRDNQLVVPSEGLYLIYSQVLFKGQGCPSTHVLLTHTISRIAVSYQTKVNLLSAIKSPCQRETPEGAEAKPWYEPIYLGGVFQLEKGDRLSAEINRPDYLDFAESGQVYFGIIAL

B1: Cathepsin G (enzyme, UniProt P08311 21-244, looked up, species assumed)
Cathepsin G: IIGGRESRPHSRPYMAYLQIQSPAGQSRCGGFLVREDFVLTAAHCWGSNINVTLGAHNIQRRENTQQHITARRAIRHPQYNQRTIQNDIMLLQLSRRVRRNRNVNPVALPRAQEGLRPGTLCTVAGWGRVSMRRGTDTLREVQLRVQRDRQCLRIFGSYDPRRQICVGDRRERKAAFKGDSGGPLLCNNVAHGIVSYGKSSGVPPEVFTRVSSFLPWIRTTMRS
For the protein B1, the “inactivation of TNFα (L929 cytotoxicity bioassay after overnight digestion)” value is “Cathepsin G (under: Proteases that did not inactivate TNF)”.

B2: MMP7 (enzyme, UniProt P09237 95-267, looked up, species assumed)
Matrilysin: YSLFPNSPKWTSKVVTYRIVSYTRDLPHITVDRLVSKALNMWGKEIPLHFRKVVWGTADIMIGFARGAHGDSYPFDGPGNTLAHAFAPGTGLGGDAHFDEDERWTDGSSLGINFLYAATHELGHSLGMGHSSDPNAVMYPTYGNGDPQNFKLSQDDIKGIQKLYGKRSNSRKK
Turning to B2, the “log reduction in TNFα activity (L929 cytotoxicity bioassay after overnight digestion)” value is reported as “MMP7 (1.22)”.

B3: ADAMTS4 (enzyme, UniProt O75173 213-837, looked up, species assumed)
A disintegrin and metalloproteinase with thrombospondin motifs 4: FASLSRFVETLVVADDKMAAFHGAGLKRYLLTVMAAAAKAFKHPSIRNPVSLVVTRLVILGSGEEGPQVGPSAAQTLRSFCAWQRGLNTPEDSDPDHFDTAILFTRQDLCGVSTCDTLGMADVGTVCDPARSCAIVEDDGLQSAFTAAHELGHVFNMLHDNSKPCISLNGPLSTSRHVMAPVMAHVDPEEPWSPCSARFITDFLDNGYGHCLLDKPEAPLHLPVTFPGKDYDADRQCQLTFGPDSRHCPQLPPPCAALWCSGHLNGHAMCQTKHSPWADGTPCGPAQACMGGRCLHMDQLQDFNIPQAGGWGPWGPWGDCSRTCGGGVQFSSRDCTRPVPRNGGKYCEGRRTRFRSCNTEDCPTGSALTFREEQCAAYNHRTDLFKSFPGPMDWVPRYTGVAPQDQCKLTCQAQALGYYYVLEPRVVDGTPCSPDSSSVCVQGRCIHAGCDRIIGSKKKFDKCMVCGGDGSGCSKQSGSFRKFRYGYNNVVTIPAGATHILVRQQGNPGHRSIYLALKLPDGSYALNGEYTLMPSPTDVVLPGAVSLRYSGATAASETLSGHGPLAQPLTLQVLVAGNPQDTRLRYSFFVPRPTPSTPRPTPQDWLHRRAQILEILRRRPWAGRK
Turning to B3, the “inactivation of TNFα (L929 cytotoxicity bioassay after overnight digestion)” value is “ADAMTS4 (under: Proteases that did not inactivate TNF)”.
